{
  "source": "patent US20090238754A1",
  "about": "“USE OF PYRENE TO CARRY PEPTIDES ACROSS THE BLOOD BRAIN BARRIER” (Adlyfe, Inc., priority 2008, published 2009)",
  "assay_type_in_all_cases": "in vivo",
  "key": {"Aβ plaques [1]": {"target": "T1, Aβ plaques (Homo sapiens, UniProt P05067)", "T1 construct": "from tissue; host or cells: brain of living hAPP transgenic mice (in vivo dosing, brain sections imaged)", "T1 sequence (P05067 672-713 limits assumed)": "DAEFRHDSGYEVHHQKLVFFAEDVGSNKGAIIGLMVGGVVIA", "assay": "Intranasal administration of peptide agent conjugate to hAPP751SL transgenic mice and littermate controls, brain fluorescence imaging (Example 1)", "description": "The following illustrates the ability of peptide agent conjugates to target Aβ plaques (e.g., insoluble self-aggregates of Aβ protein associated with Alheimer's disease) in vivo. A peptide agent specific for Aβ corresponding to residues 16-35 of the Aβ protein (SEQ ID NO:3) with an added C-terminal lysine residue (e.g., SEQ ID NO:5) for conjugating pyrene, and labeled at each terminus with pyrene is used.\nIn vivo studies use four homozygous hAPP751SL transgenic 10 month old mice and four littermate controls (siblings not carrying the transgene). The labeled peptide agent conjugate is administered intranasally, at 10 μl liquid per administration (at concentrations of from 0.1 to 2.0 mg/ml) with an administration interval of a planned half of an hour, adjusted according to the condition of the animal after treatment.\nAt the end of the treatment, mice are sacrificed and CSF and brains are extracted. (All mice are sedated by standard inhalation anaesthesia, Isofluran, Baxter).\nCerebrospinal fluid is obtained by blunt dissection and exposure of the foramen magnum. Upon exposure, a Pasteur pipette is inserted to the approximate depth of 0.3-1 mm into the foramen magnum. CSF is collected by suctioning and capillary action until flow fully ceases. CSF is immediately frozen and kept at −80° C. until use.\nAfter CSF sampling, the stomach, stomach content and the brains are rapidly removed. Brains are hemisected, and the right hemisphere of all mice are immersion fixed in freshly produced 4% Paraformaldehyde/PBS (pH 7.4) for one hour at room temperature, and transferred to a 15% sucrose/PBS solution for 24 hours to ensure cryoprotection. Thereafter, brains are frozen in liquid isopentane on the next day and stored at −80° C. until used for histological investigations. The other brain half is immediately shock frozen in liquid isopentane for future use.\nTo assess the specifity of staining by the peptide agent conjugate, fluorescence is excited using a UV-2A and B-1E filter of a microscope to detect probable auto-fluorescence in the lower spectrum. […]"}, "Aβ plaques [2]": {"target": "T1, Aβ plaques", "assay": "Fluorescent labeling of Aβ plaques in brain after intranasal administration to hAPP transgenic mice (Example 2)", "details": "for fluorescent labeling of Aβ plaques (FIG. 1): three 10 μl injections at 20 minute intervals, sacrificed 6 hours later, hAPP transgenic mice", "protocol": "Three groups of three hAPP transgenic mice were treated with vehicle (10% DMSO), the Aβ peptide-agent conjugate described above, or pyrene butyrate. Mice received three 10 μl injections at 20 minute intervals over a one hour period. Mice were sacrificed 6 hours later and tissues were collected. Flourescence in sagital sections was performed using fixed frozen tissue and a UV-2A fileter-equipped microscope. All plaque counts were performed on a digital images using Image-Pro-Plus software (Media Cybernetics, Inc., Bethesda, Md.)."}, "Aβ plaques [3]": {"target": "T1, Aβ plaques", "assay": "Fluorescent labeling of Aβ plaques in brain after intravenous administration to hAPP transgenic mice (Example 3)", "details": "intravenous 30 mg/kg, tail vein, 6 hours after administration", "protocol": "hAPP transgenic mice were administered the Aβ peptide-agent conjugate described above intravenously at a dose of 30 mg/kg through the tail vein. Mice were sacrificed at 6 hours after the administration of the conjugate, and brain sections were prepared for imaging as described above. After a section was imaged for conjugate fluorescence, it was bleached of fluorescence and stained with a Thioflavin S stain."}, "[4]": {"assay": "Clearance of conjugate determined by analysis of cerebrospinal fluid", "details": "6 hours post-administration; CSF revealed no evidence of circulating conjugate", "protocol": "The rate of localization and clearance or degradation of a conjugate can be assessed experimentally, for example, by administering the conjugates to mice and sacrificing them for analysis at different times post-administration, such as at time periods including 2 minutes, 10 minutes, 30 minutes, 60 minutes, 1 hour, 2 hours, 3 hours, 4 hours, 5 hours, 6 hours, or longer, post-administration."}},
  "note": "pyrene = pyrene label",
  "data": [
    {"substance": "AD185: Peptide of residues 16-35 of the Aβ protein with added C-terminal lysine (SEQ ID NO:5), labeled at each terminus with pyrene (pyrene-KLVFFAEDVGSNKGAIIGLMK-pyrene)", "values": [
      {"measurement": "binding to amyloid in the brain", "setting": "Aβ plaques [1]; hAPP751SL transgenic mice", "value": "binds to the amyloid and agglomerates outside the blood vessel in the brain"},
      {"measurement": "localization and binding in the brain", "setting": "Aβ plaques [1]; nontransgenic mice", "value": "reaches the olfactory bulb, but does not bind to a specifiable morphological structure"},
      {"measurement": "crossing of the blood-brain barrier (BBB)", "setting": "Aβ plaques [1]; transgenic mice treated with the highest dose, brain images vs control mice and transgenic vehicle control", "value": "crosses the blood-brain barrier"},
      {"measurement": "correlation between conjugate fluorescence and Thioflavin S staining", "setting": "Aβ plaques [2]; hippocampus (data not shown)", "value": "positive correlation"},
      {"measurement": "coincidence of conjugate fluorescence with 6E10 antibody and Thioflavin S plaque staining", "setting": "Aβ plaques [2]; sequential sagital brain sections, co-merged images", "value": "coincided with the antibody and Thioflavin S plaque staining"},
      {"measurement": "fluorescent labeling of Aβ plaques (FIG. 1)", "setting": "Aβ plaques [2]", "value": "showed fluorescent labeling of Aβ plaques"},
      {"measurement": "correlation between conjugate fluorescence and Thioflavin S staining", "setting": "Aβ plaques [3]; cortex (FIG. 3A)", "value": "significant correlation"},
      {"measurement": "correlation between conjugate fluorescence and Thioflavin S staining", "setting": "Aβ plaques [3]; hippocampus (FIG. 3B)", "value": "significant correlation"},
      {"measurement": "clearance, as determined by analysis of cerebrospinal fluid", "setting": "[4]", "value": "cleared"}
    ]},
    {"substance": "pyrene butyrate [reference compound]", "values": [
      {"measurement": "fluorescent labeling of Aβ plaques (FIG. 1)", "setting": "Aβ plaques [2]", "value": "did not"}
    ]}
  ]
}
